Results: patent publication US20190367620A1 (Merck KGaA, published 2019)
Positions count from the first letter of the chain named.

Tests used:
Experiment in all cases: SPR as in Example 1.8
[1] = target: T1, FGFR1 D2 point mutant P57A (human, UniProt P11362 22-254)
T1 chain: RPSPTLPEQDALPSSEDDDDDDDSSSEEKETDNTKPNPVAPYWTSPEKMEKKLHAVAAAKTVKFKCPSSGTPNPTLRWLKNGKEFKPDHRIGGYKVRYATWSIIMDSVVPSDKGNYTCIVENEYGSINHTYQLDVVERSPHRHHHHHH
Method: (§1) Binding affinities of anti-FGFR1 antibodies to FGFR1 were measured by Surface Plasmon Resonance (SPR) using a GE Healthcare BIAcore 4000 instrument as follows. Goat anti-human Fc antibody (Jackson ImmunoResearch Laboratories #109-005-098) was first immobilized on BIAcore carboxymethylated dextran CM5 chip using direct coupling to free amino groups following the procedure described by the manufacturer. Antibodies were then captured on the CM5 biosensor chip to achieve approximately 200 response units (RU). Binding measurements were performed using the running HBS-EP+ buffer. A 2-fold dilution series of His-tagged FGFR1 proteins were injected at a flow rate of 30 μl/min at 25° C. Association rates (kₒₙ, per mol/s) and dissociation rates (koff, per s) were calculated using a simple 1:1 Langmuir binding model (Biacore 4000 Evaluation Software). The equilibrium dissociation constant (KD, mol) was calculated as the ratio of koff/kₒₙ.
(§2) To obtain a finer, residue-level mapping of the epitope and to complement the HD exchange data, molecular modelling and manual inspection of the crystal structure of FGFR1 [(Beenken et al. 2012); PDB record 3OJV] was used to select solvent exposed residues within and around the epitope identified by HD exchange. The selected residues were mutated either to alanine (large to small) or to glycine if the selected residue was alanine. In total 35 point mutants were designed, expressed and purified in HEK cells, and tested for binding to mAb #A08 using surface plasmon resonance as described in Example 1.8. The affinity of the antibody for wild-type and each mutant was determined and used to calculate the contribution of each epitope residue to the binding energy.

[2] = target: T2, FGFR1 D2 point mutant A55G (human, UniProt P11362 22-254)
T2 chain: T1 chain with A55G, A57P
Method: as §1, §2

[3] = target: T3, FGFR1 D2 point mutant G93A (human, UniProt P11362 22-254)
T3 chain: T1 chain with A57P, G93A
Method: as §1, §2

[4] = target: T4, FGFR1 D2 point mutant V56A (human, UniProt P11362 22-254)
T4 chain: T1 chain with V56A, A57P
Method: as §1, §2

[5] = target: T5, FGFR1 D2 point mutant K48A (human, UniProt P11362 22-254)
T5 chain: T1 chain with K48A, A57P
Method: as §1, §2

[6] = target: T6, FGFR1 D2 point mutant P87A (human, UniProt P11362 22-254)
T6 chain: T1 chain with A57P, P87A
Method: as §1, §2

[7] = target: T7, FGFR1 D2 point mutant A59G (human, UniProt P11362 22-254)
T7 chain: T1 chain with A57P, A59G
Method: as §1, §2

[8] = target: T8, FGFR1 D2 point mutant K52A (human, UniProt P11362 22-254)
T8 chain: T1 chain with K52A, A57P
Method: as §1, §2

[9] = target: T9, FGFR1 D2 point mutant K86A (human, UniProt P11362 22-254)
T9 chain: T1 chain with A57P, K86A
Method: as §1, §2

[10] = target: T10, FGFR1 D2 point mutant E50A (human, UniProt P11362 22-254)
T10 chain: T1 chain with E50A, A57P
Method: as §1, §2

[11] = target: T11, FGFR1 D2 point mutant D106A (human, UniProt P11362 22-254)
T11 chain: T1 chain with A57P, D106A
Method: as §1, §2

Kd [1]: 0.41 nM
Kd [2]: 0.22 nM
Kd [3]: 0.32 nM
Kd [4]: 0.27 nM
Kd [5]: 0.09 nM
Kd [6]: 0.22 nM
Kd [7]: 3.91 nM
Kd [8]: 0.23 nM
Kd [9]: 0.18 nM
Kd [10]: 0.2 nM
Kd [11]: 4.93 nM
B1: mAb #A08 (antibody, V domains shown)
VH: EVQLQESGPGLVKPSGTLSLTCAVSGGSISSNNWWSWVRQPPGKGLEWIGEIYHSGSTSYNPSLKSRVTISVDKSKNQFSLKLNSVTAADTAVYYCARGTDWFDPWGQGTLVTVSS
VL: QAVLTQPPSVSVAPGQTARITCGGNNIGSESVHWYQQKPGQAPVLVVYDDSDRPSGIPERFSGSNSGNTATLTISRVEAGDEADYYCQVWDSTSDHRVFGGGTKLTVL
notes: Only variable domains are tied to the name mAb #A08 (hit); also called #A08 hit; mAb #08
